Assay results taken from publication PMC2637605.

Tested on: Foxi1 (FOXI1)
Test: competition EMSA
Details: unlabeled wt competitor; 5 mM HEPES pH 7.9, 100 mM KCl, 26% glycerol, 1.5 mM MgCl2, 0.2 mM EDTA, 0.5 mM DTT, 0.5 mM PMSF, 500 ng poly dI:dC, room temperature 15 min; 6% native gel …; scale: fold molar excess for effective competition

## ATP6V0A4 Fk1-3 wt (-561/-547)
  competitor fold molar excess for effective competition: 10
